These results are taken from patent US20250188161A1.

Common to all, as to assay: flow cytometry, HEK-293T cells co-transfected with mGarp and the HA-tagged TGF-β1 construct
For orientation: Flow cytometry measures light scatter and fluorescence of single cells or particles in a stream.

Experiment [1] deals with HA-tagged mouse-human-mouse chimeric TGF-β1, mouse LAP residues 87-135 replaced by the corresponding human LAP segment, on HEK-293T cells co-transfected with GARP (mouse; human) (UniProt P04202).
In experiment [2] the target is HA-tagged mouse-human-mouse chimeric TGF-β1, mouse LAP residues 201-222 replaced by the corresponding human LAP segment, on HEK-293T cells co-transfected with GARP (mouse; human) (UniProt P04202).
Experiment [3] concerns the target HA-tagged mouse-human-mouse chimeric TGF-β1, mouse LAP residues 223-278 replaced by the corresponding human LAP segment, on HEK-293T cells co-transfected with GARP (mouse; human) (UniProt P04202).
The target of experiment [4] is HA-tagged mouse-human-mouse chimeric TGF-β1, mouse LAP residues 136-200 replaced by the corresponding human LAP segment, on HEK-293T cells co-transfected with GARP (mouse; human) (UniProt P04202).

B1: LHT-15 (13E7) (antibody, V domains shown)
VH: EVQLVESGGDLVQPGGSLRLSCAASGFTFSSYWMDWVRQAPGKGLEWVSRITNSGGTAFYTDSVEGRFTISRDNAKNTLYLQMNSLKSEDTAVYYCLRYITRAQLMGAWDYWGQGTQVTVSS
VL: ATMLTQSPGSLSVVPGESASISCKASQSLVHTDGKTYLSWLLQKPGQRPQLLIYQVSNRASGVPDRFTGSGSGTDFTLKISGVKAEDAGVYYCAQSTYYPYDFGSGTRLEIR
For B1, in experiment [1], the % binding relative to WT TGF-β1 (100 %) turned out to be 101%.

B2: LMT-10 (20G4) (antibody, V domains shown)
VH: QVQLVESGGGLVQPGGSLTLSCAASGFTFSNYYMTWVRQAPGKGLEWVSSIYSTGSHTYYADSVKGRFTISRDNAKDTLYLQMNDLKSEDTAVYYCAKNIYTYYTAHYAGMDYWGKGTLVTVSS
VL: QSALTQPSTVSVSLGQMARITCQGGSLGSYDAHWYQQKPGQAPVLVIHDDNSRPSGIPERFSGSRSGGTATLTISGAQADDEGVYFCHSYDSSANAPVFGGGTELTVL
On to B2, for which the % binding relative to WT TGF-β1 (100 %) in experiment [2] came out at 126%; in experiment [3], 99%; in experiment [1], 158%.

B3: LHT-18 (14E7) (antibody, V domains shown)
VH: QVQLVESGGGLVQPGGSLRLSCAASGFTFSHYWMYWVRQAPGKGLEWVSAINTGGGITYYTDSVKGRFTVSRDNAKNTLYLQMNSLKSEDTAVYYCAKSRYGVVITTTYFGGVDYWGKGTLVTVSS
VL: SSALTQPSAVSVSLGQTARITCQGGNFGSYYASWYQQKPGQAPVQVIYGNSNRPSGIPERFSGSSSGDTATLTISGAQAEDEADYYCLSYESSGYAVFGGGTHLTVL
In turn, B3 came in with a % binding relative to WT TGF-β1 (100 %) in experiment [2] of 63%.

B4: LMT-9 (20G3) (antibody, V domains shown)
VH: LQLVESGGGLVQPGGSLRLSCAASGFTFSRSGMAWVRQAPGKGLEWVSAITPGGTATYYANSVKGRVTMSRDNAKNTLYLQMNSLKSEDTAVYYCAKGLVSSGLNGMDYWGKGTLVTVSS
VL: QSVLTQLSSMSGSPGQTVTITCTGSSSNIGGGYYLSWYQQLPGTAPKLLIYNTNNRASGVPNRFSGSKTGSLASLTITGLQAEDEADYYCGCYDDSLNTYVFGGGTKLTVL
With B4, the % binding relative to WT TGF-β1 (100 %) in experiment [2] worked out at 2%; in experiment [3], 126%; in experiment [1], 164%; in experiment [4] it was 108%.

B5: LMT-2 (6D12) (antibody, V domains shown)
VH: EVQLVESGGGLVQPGGSLRLSCAASGFTFSNYGVHWVRQAPGKGLEWVSHISAAGISRYYADAVKGRFTMSRDNGKNTLYLQMNGLKSEDTAVYYCAKDRIRSSYEYDSWGQGTQVTVSS
VL: LPVLTQLSSMSGSPGQTVTITCTGSSSNIGGGYYLSWYQQLPGTAPKLLIYNANNRASGVPNRFSGSKSGNLASLTITGLQAEDEADYYCGCYDSSLSTGYVFGGGTKLTVL
For the molecule B5, the % binding relative to WT TGF-β1 (100 %) in experiment [2] was 2%; in experiment [3] it was 115%; in experiment [1], 157%; in experiment [4], 155%.

B6: LHT-22 (15A2) (antibody, V domains shown)
VH: ELQLVESGGGLVQPGGSLRLSCAASGFTFDDYTMNWVRQAPGKGLEWVSAIRWNGVTTYYAESMKGRFTVSRDNGNNTLYLQMNSLKAEDTAVYYCAKGGSIDLTYGMDYWGKGTLVTVSS
VL: QAVVTQEPSLSVSPGGTVTITCGLSSGSVTRNNYPDWYQQTPGQAPRLLLYNTVARHSGVPSRFSGSISGNKAALTITGAQPEDEAGYYCALYMYTGSNNGRVFGGGTLLTVL
The molecule B6 gave a % binding relative to WT TGF-β1 (100 %) in experiment [2] of 89%.

B7: LMT-12 (14D7) (antibody, V domains shown)
VH: EVQLVESGGGLVQPGGSLRLSCAASGFTFSSYYMYWVRQAPGKGLEWVSGTSIGGGSTWYADSVKGRFTISRDNAKNTLYLQMNNLKSEDTAVYYCAKDLNSRSYKGMGDWGQGTQVTVSS
VL: QPALTQLSSMSGSPGQTVTITCTGSSSNIGGGYYLNWYQQLPGAAPKLVIYNANNRASGVPDRFSGSKSGNLASLTITGLQAEDEAVYFCGCYDSSLSSVVFGGGTHLTVL
For B7, the % binding relative to WT TGF-β1 (100 %) worked out at 3% in experiment [2], 89% in experiment [3], 99% in experiment [1] and 105% in experiment [4].
